IntAct's records for PubMed 31515488

B1: Serine/threonine-protein kinase PAK 5 (Homo sapiens), Q9P286 (parent)
chain: MFGKKKKKIEISGPSNFEHRVHTGFDPQEQKFTGLPQQWHSLLADTANRPKPMVDPSCITPIQLAPMKTIVRGNKPCKETSINGLLEDFDNISVTRSNSLRKESPPTPDQGASSHGPGHAEENGFITFSQYSSESDTTADYTTEKYREKSLYGDDLDPYYRGSHAAKQNGHVMKMKHGEAYYSEVKPLKSDFARFSADYHSHLDSLSKPSEYSDLKWEYQRASSSSPLDYSFQFTPSRTAGTSGCSKESLAYSESEWGPSLDDYDRRPKSSYLNQTSPQPTMRQRSRSGSGLQEPMMPFGASAFKTHPQGHSYNSYTYPRLSEPTMCIPKVDYDRAQMVLSPPLSGSDTYPRGPAKLPQSQSKSGYSSSSHQYPSGYHKATLYHHPSLQSSSQYISTASYLSSLSLSSSTYPPPSWGSSSDQQPSRVSHEQFRAALQLVVSPGDPREYLANFIKIGEGSTGIVCIATEKHTGKQVAVKKMDLRKQQRRELLFNEVVIMRDYHHDNVVDMYSSYLVGDELWVVMEFLEGGALTDIVTHTRMNEEQIATVCLSVLRALSYLHNQGVIHRDIKSDSILLTSDGRIKLSDFGFCAQVSKEVPKRKSLVGTPYWMAPEVISRLPYGTEVDIWSLGIMVIEMIDGEPPYFNEPPLQAMRRIRDSLPPRVKDLHKVSSVLRGFLDLMLVREPSQRATAQELLGHPFLKLAGPPSCIVPLMRQYRHH
partner: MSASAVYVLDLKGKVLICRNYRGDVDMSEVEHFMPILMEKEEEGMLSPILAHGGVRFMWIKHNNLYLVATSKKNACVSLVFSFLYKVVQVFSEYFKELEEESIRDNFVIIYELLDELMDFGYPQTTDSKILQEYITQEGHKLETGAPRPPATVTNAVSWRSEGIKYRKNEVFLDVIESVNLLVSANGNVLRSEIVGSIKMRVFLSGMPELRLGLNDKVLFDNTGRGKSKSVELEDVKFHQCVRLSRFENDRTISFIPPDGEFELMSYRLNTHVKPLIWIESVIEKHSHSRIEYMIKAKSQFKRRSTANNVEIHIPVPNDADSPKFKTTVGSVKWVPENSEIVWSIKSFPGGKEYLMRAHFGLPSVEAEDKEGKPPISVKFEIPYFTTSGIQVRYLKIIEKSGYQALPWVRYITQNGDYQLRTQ
B2: Origin recognition complex subunit 6 (Homo sapiens), Q9Y5N6 (parent)
chain: MGSELIGRLAPRLGLAEPDMLRKAEEYLRLSRVKCVGLSARTTETSSAVMCLDLAASWMKCPLDRAYLIKLSGLNKETYQSCLKSFECLLGLNSNIGIRDLAVQFSCIEAVNMASKILKSYESSLPQTQQVDLDLSRPLFTSAALLSACKILKLKVDKNKMVATSGVKKAIFDRLCKQLEKIGQQVDREPGDVATPPRKRKKIVVEAPAKEMEKVEEMPHKPQKDEDLTQDYEEWKRKILENAASAQKATAE
partner: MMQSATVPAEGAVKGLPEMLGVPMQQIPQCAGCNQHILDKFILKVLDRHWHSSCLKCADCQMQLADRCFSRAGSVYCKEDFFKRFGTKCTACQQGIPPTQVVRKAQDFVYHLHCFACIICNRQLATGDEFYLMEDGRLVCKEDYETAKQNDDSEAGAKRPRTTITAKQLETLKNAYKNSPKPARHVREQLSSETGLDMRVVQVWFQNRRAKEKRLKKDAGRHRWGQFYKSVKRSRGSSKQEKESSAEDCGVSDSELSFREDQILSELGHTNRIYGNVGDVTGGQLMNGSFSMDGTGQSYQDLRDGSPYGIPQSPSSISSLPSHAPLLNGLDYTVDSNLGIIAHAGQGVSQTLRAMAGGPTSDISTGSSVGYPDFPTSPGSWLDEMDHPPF
B3: IQ motif and ubiquitin-like domain-containing protein (Homo sapiens), Q8NA54 (parent)
chain: MSNQQEKYEAQNIVNSTEESDDAFDTVTIPVPSEEPQESDQTEEHESGIEQFSESHAIHVEEQSDQSFSSLEPDNEQLMEEVISPRQVSYTPQHHEKQYAMQRPNDDSLAFLDKIKSVKESLQESVEDSLATVKVVLIPVGQEIVIPFKVDTILKYLKDHFSHLLGIPHSVLQIRYSGKILKNNETLVQHGVKPQEIVQVEIFSTNPDLYPVRRIDGLTDVSQIITVTVQTGLDQYQQVPVEIVKSDFHKPFLGGFRHKVTGVEYHNAGTQTVPKRIPERLSIFCRDTQTVFQKKNLQQTTNTTSTQMTNIGVYVSNMTDKLVTPGKYFSAAEYHAQRLKAVIVIQTYYRQWHAKIFVENLRRQKSLRLEWETQQELRKIREKEEWIKLDYHRRHNPKTNEDFEFLYNALEFWRQEELTRINQSFTGAERKAALCELLEKETQIIASIGRHRYIAYMANQEAAIQAFLDKCSAPKIWRTPNGKTIEMDTQFTIRARELQNIYKCIMLKNISQDERLDVLLTLKHTVKEHECKLTQEILELIDREVDLMMRGVKHHNLEGLRKRIATLFFHYIKTPLFNPEVAKYLKVPQDPLKFYKKIYFCHSCQLYLPSTEFSVSSTSRRIYRCRNCINLQNEAQKRESFLKYKCLLQQLYYTEADYEDDSKIAFLMQLQDIQYLTENIWASQSVLSACDNLSDLVMVRWNKSLEWSPWNCILLTKDEAAAHLKLTSIEEGYERSFIHKIKHKHILAKNYFSQVPVLASFILDDGEIDEIRWKYHSDTTPKIIESQRPPH
B4: Armadillo repeat-containing protein 1 (Homo sapiens), Q9NVT9 (parent)
chain: MNSSTSTMSEEPDALSVVNQLRDLAADPLNRRAIVQDQGCLPGLILFMDHPNPPVVHSALLALRYLAECRANREKMKGELGMMLSLQNVIQKTTTPGETKLLASEIYDILQSSNMADGDSFNEMNSRRRKAQFFLGTTNKRAKTVVLHIDGLDDTSRRNLCEEALLKIKGVISFTFQMAVQRCVVRIRSDLKAEALASAIASTKVMKAQQVVKSESGEEMLVPFQDTPVEVEQNTELPDYLPEDESPTKEQDKAVSRVGSHPEGGASWLSTAANFLSRSFYW
B5: Growth arrest and DNA damage-inducible protein GADD45 gamma (Homo sapiens), O95257 (parent)
chain: MTLEEVRGQDTVPESTARMQGAGKALHELLLSAQRQGCLTAGVYESAKVLNVDPDNVTFCVLAAGEEDEGDIALQIHFTLIQAFCCENDIDIVRVGDVQRLAAIVGAGEEAGAPGDLHCILISNPNEDAWKDPALEKLSLFCEESRSVNDWVPSITLPE
partner: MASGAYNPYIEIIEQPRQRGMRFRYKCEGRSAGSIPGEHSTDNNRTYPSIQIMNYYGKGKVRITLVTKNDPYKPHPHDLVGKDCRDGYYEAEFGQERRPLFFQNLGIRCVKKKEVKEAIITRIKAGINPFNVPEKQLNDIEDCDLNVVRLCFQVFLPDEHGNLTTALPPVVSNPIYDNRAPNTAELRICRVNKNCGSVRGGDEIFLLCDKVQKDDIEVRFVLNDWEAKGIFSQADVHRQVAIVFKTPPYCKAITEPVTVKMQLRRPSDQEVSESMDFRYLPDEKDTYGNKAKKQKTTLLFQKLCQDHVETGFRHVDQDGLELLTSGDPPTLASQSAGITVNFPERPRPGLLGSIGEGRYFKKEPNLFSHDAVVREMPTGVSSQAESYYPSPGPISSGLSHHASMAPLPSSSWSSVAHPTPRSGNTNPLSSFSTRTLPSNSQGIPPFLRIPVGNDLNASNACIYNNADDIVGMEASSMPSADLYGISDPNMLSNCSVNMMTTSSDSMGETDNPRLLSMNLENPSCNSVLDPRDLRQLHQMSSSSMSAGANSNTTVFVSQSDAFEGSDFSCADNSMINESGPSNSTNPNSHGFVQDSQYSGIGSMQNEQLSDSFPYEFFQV
B6: 2'-5'-oligoadenylate synthase 1 (Homo sapiens), P00973 (parent)
chain: MMDLRNTPAKSLDKFIEDYLLPDTCFRMQINHAIDIICGFLKERCFRGSSYPVCVSKVVKGGSSGKGTTLRGRSDADLVVFLSPLTTFQDQLNRRGEFIQEIRRQLEACQRERAFSVKFEVQAPRWGNPRALSFVLSSLQLGEGVEFDVLPAFDALGQLTGGYKPNPQIYVKLIEECTDLQKEGEFSTCFTELQRDFLKQRPTKLKSLIRLVKHWYQNCKKKLGKLPPQYALELLTVYAWERGSMKTHFNTAQGFRTVLELVINYQQLCIYWTKYYDFKNPIIEKYLRRQLTKPRPVILDPADPTGNLGGGDPKGWRQLAQEAEAWLNYPCFKNWDGSPVSSWILLAESNSADDETDDPRRYQKYGYIGTHEYPHFSHRPSTLQAASTPQAEEDWTCTIL

Variants of: B1
Conditions: with ap1m1_human AP1M1, Q9BXS5

Variant | effect of a mutation on the interaction
S511N | with no effect

Variants of: B2
Conditions: with lhx4_human LHX4, Q969G2

Variant | effect of a mutation on the interaction
K201N | with no effect

Variants of: B3
Conditions: with tri23_human TRIM23, P36406
Chain of tri23_human TRIM23, P36406 (P36406 whole entry): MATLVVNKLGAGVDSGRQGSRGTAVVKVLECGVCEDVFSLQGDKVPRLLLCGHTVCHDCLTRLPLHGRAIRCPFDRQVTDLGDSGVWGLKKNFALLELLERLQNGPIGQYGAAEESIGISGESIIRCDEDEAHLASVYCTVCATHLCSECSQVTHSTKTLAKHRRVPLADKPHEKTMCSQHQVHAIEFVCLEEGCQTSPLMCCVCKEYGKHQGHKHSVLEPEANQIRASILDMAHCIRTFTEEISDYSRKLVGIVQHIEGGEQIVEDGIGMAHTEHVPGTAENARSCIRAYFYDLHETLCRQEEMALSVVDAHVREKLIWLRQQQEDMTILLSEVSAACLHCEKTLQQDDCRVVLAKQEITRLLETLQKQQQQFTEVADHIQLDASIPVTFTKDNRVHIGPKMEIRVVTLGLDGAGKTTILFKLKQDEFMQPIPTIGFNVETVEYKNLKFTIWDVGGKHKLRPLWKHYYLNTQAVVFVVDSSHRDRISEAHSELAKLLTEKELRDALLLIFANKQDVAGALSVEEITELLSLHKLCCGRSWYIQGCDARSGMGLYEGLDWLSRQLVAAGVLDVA

Variant | effect of a mutation on the interaction
V126M | with no effect

Variants of: B4
Conditions: with mfr1l_human MTFR1L

Variant | effect of a mutation on the interaction
M83T | with no effect

Variants of: B5
Conditions: with rel_human REL

Variant | effect of a mutation on the interaction
G112S | with no effect

Variants of: B6
Conditions: with actn1_human ACTN1, P12814
Chain of actn1_human ACTN1, P12814 (P12814 whole entry): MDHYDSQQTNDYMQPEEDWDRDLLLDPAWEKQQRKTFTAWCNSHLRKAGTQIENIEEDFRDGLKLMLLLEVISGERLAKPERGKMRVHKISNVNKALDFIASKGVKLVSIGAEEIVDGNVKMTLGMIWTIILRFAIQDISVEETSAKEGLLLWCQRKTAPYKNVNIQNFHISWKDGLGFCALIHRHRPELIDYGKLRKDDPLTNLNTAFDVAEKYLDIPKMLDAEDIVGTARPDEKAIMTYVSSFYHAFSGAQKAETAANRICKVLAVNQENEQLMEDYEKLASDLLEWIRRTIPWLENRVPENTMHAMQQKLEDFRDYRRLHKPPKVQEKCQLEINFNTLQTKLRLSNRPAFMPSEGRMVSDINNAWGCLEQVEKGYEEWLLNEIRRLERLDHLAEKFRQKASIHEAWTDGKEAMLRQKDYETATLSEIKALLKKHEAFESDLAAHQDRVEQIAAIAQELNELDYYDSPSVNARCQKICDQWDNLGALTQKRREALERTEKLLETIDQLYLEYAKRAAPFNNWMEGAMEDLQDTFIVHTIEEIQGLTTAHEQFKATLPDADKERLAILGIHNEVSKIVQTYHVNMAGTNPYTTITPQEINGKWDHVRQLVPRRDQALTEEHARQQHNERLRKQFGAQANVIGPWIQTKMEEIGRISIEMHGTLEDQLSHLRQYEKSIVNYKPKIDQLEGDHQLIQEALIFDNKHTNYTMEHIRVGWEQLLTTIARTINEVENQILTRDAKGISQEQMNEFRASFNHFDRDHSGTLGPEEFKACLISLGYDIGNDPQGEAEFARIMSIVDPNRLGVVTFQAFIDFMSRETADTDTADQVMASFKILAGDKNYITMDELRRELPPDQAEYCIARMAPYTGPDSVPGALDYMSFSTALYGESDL

Variant | effect of a mutation on the interaction
L327P | disrupting interaction strength
